From US20170296640A1 (IMMATICS BIOTECHNOLOGIES, published 2017)

Target: T1, HLA-A*02:01 (peptide-receptive MHC class I monomer after UV cleavage of the UV-sensitive ligand) (human)
T1 construct: MHC monomers loaded by UV-ligand exchange and captured on streptavidin plates
Assay: UV ligand-exchange ELISA; exchange yield grade (+ >=10%, ++ >=20%, +++ >=50%, ++++ >=75%)
Excerpt: Candidate peptides for T cell based therapies according to the present invention were further tested for their MHC binding capacity (affinity). The individual peptide-MHC complexes were produced by UV-ligand exchange, where a UV-sensitive peptide is cleaved upon UV-irradiation, and exchanged with the peptide of interest as analyzed. Only peptide candidates that can effectively bind and stabilize the peptide-receptive MHC molecules prevent dissociation of the MHC complexes. To determine the yield of the exchange reaction, an ELISA was performed based on the detection of the light chain (β2m) of stabilized MHC complexes. The assay was performed as generally described in Rodenko et al. (Rodenko et al., 2006).
96 well MAXISorp plates (NUNC) were coated over night with 2 ug/ml streptavidin in PBS at room temperature, washed 4× and blocked for 1 h at 37° C. in 2% BSA containing blocking buffer. Refolded HLA-A*02:01/MLA-001 monomers served as standards, covering the range of 15-500 ng/ml. Peptide-MHC monomers of the UV-exchange reaction were diluted 100 fold in blocking buffer. Samples were incubated for 1 h at 37° C., washed four times, incubated with 2 ug/ml HRP conjugated anti-β2m for 1 h at 37° C., washed again and detected with TMB solution that is stopped with […]. Absorption was measured at 450 nm. Candidate peptides that show a high exchange yield (preferably higher than 50%, most preferred higher than 75%) are generally preferred for a generation and production of antibodies or fragments thereof, and/or T cell receptors or fragments thereof, as they show sufficient avidity to the MHC molecules and prevent dissociation of the MHC complexes.

Binder	peptide exchange yield [%]
NLMLELETV [NLMLELETV (SEQ ID NO: 161)]	50 to 75
TLIAAILYL [TLIAAILYL (SEQ ID NO: 16)]	20 to 50
RLADLKVSI [RLADLKVSI (SEQ ID NO: 162)]	≥ 75
SIFDAVLKGV [SIFDAVLKGV (SEQ ID NO: 163)]	≥ 75
SLFDGAVISTV [SLFDGAVISTV (SEQ ID NO: 164)]	50 to 75
KLLEEIEFL [KLLEEIEFL (SEQ ID NO: 165)]	50 to 75
SLFSITKSV [SLFSITKSV (SEQ ID NO: 167)]	50 to 75
SLLSPLLSV [SLLSPLLSV (SEQ ID NO: 168)]	50 to 75
SSLEENLLHQV [SSLEENLLHQV (SEQ ID NO: 169)]	50 to 75
TLLDVISAL [TLLDVISAL (SEQ ID NO: 171)]	≥ 75
TLQDSLEFI [TLQDSLEFI (SEQ ID NO: 172)]	≥ 75
VILDSVASV [VILDSVASV (SEQ ID NO: 173)]	≥ 75
VIIPLLSSV [VIIPLLSSV (SEQ ID NO: 17)]	50 to 75
VLVEITDVDFAA [VLVEITDVDFAA (SEQ ID NO: 174)]	≥ 75
VMESILLRL [VMESILLRL (SEQ ID NO: 175)]	50 to 75
YLHIYESQL [YLHIYESQL (SEQ ID NO: 176)]	50 to 75
YLYEAEEATTL [YLYEAEEATTL (SEQ ID NO: 177)]	50 to 75
YVLQGEFFL [YVLQGEFFL (SEQ ID NO: 178)]	50 to 75
FVDTNLYFL [FVDTNLYFL (SEQ ID NO: 179)]	50 to 75
GILQLVESV [GILQLVESV (SEQ ID NO: 180)]	50 to 75
LLFDQNDKV [LLFDQNDKV (SEQ ID NO: 181)]	50 to 75
LLPPPPPVA [LLPPPPPVA (SEQ ID NO: 182)]	≥ 75
VLFETVLTI [VLFETVLTI (SEQ ID NO: 183)]	50 to 75
KLTDQPPLV [KLTDQPPLV (SEQ ID NO: 18)]	50 to 75
AVLGTSWQL [AVLGTSWQL (SEQ ID NO: 184)]	50 to 75
FIAQLNNVEL [FIAQLNNVEL (SEQ ID NO: 185)]	50 to 75
FLDVSRDFV [FLDVSRDFV (SEQ ID NO: 186)]	20 to 50
FLNSFVFKM [FLNSFVFKM (SEQ ID NO: 187)]	20 to 50
GLEDEMYEV [GLEDEMYEV (SEQ ID NO: 188)]	20 to 50
SLSHLVPAL [SLSHLVPAL (SEQ ID NO: 189)]	50 to 75
